# Assay: yeast display, Sf9 membrane polyspecificity reagent, FACS + sequencing; frameworks hold sequencing errors
# Outline: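 Nanobodies came from a synthetic yeast display library in Saccharomyces cerevisiae BJ5465, induced with galactose for 36–48 hours and stained for 1 hour at 4 °C with 10% biotinylated, detergent-solubilized Sf9 membrane reagent. Cells were enriched on streptavidin microbeads and then FACS-sorted, with low and high (top ~1%) gates set on anti-HA fluorescence for expression and streptavidin fluorescence for reagent binding. Each polyreactivity label reflects the gate a clone came from. Genes were amplified by colony PCR, sequenced by MiSeq 2 × 250 and filtered by CDR length.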
row,Sequence,polyreactivity (PSR sort gate)
1,QVQLVESGRGLVQAGASLRLSCAASGRTFPYYARGRYRQAPGKERELVAAITTGGSTNYADSVKGRFTISRDNAKNTVYLQMNRLKPEDTAVYYCAKRFYRSRLNYYYWGQGTQVTVSS,high polyreactivity
2,QVQLVESGRGLVQAGGSLRISCASSGNTFVYNPMGWYRQAPGKERELVAAIDSGGSTNYADSVKGRFTISRDNAKNTVYLQMNSLKPEDTAVYYCNRTSVYDYYWGQGTQGTVSS,low polyreactivity
3,QVQLVESGRGLVQAGGSLRLSCAASASTFTLNTMGWYREAAGKERELVAAITASGGRTFYADSVKGPFTISRDNANNTVYLQMTSLKPEDTAFYYCAKRPYGWVSRYDYWGQVTQVTVSS,low polyreactivity
4,QVQLVESGRGLVQAGGSLRLSCAASGFIFGGYAMGWYRQAPGKERELVAAISRSGGSTYYADSVKGRFTISRDNAKNTVYLQMNSLKPEDTAVYYCAAKFWPEDHRLDYWGQGTQVTVSS,low polyreactivity
5,QVQLVESGRGLVQAGGSLRLSCAASGFIFSYYAMGWYRPAPGKERELVAAITVTGGNTNYADSVKGRFTISRDNAKNTVYLQMNSLKPEDTAVYYCAAVVRGPGVYVYDWGQGTQVTVSS,low polyreactivity
6,QVQLVESGRGLVQAGGSLRLSCAASGFMIGINAMGWYRQAPGKERELVDAISTGDRTNYAHSVKGRFTISRDNAKNTVYLQMNSLKPEDTAVYYCAKDWRRNRPYEWTYDYWGQGTQVTVSS,low polyreactivity
7,QVQLVESGRGLVQAGGSLRLSCAASGFTFAPNAMGWYRQAPGKDRELVARIDRAGSTYYADSVKGRFTISRDNAKNTVYLQMNSLKPEDTAVYYCATDYHGQPSPPYQSIKVDYWGQGTQVTVSS,low polyreactivity
8,QVQLVESGRGLVQAGGSLRLSCAASGFTFSLNAMGWYRQAPGKERELVAGISIGGSTNYADSVKGRFTISRDNAKNTVYLQMNSLKPEDTAVYYCNAYYWSATWYFAAWDYYYWGQGTQVTVSS,high polyreactivity
9,QVQLVESGRGLVQAGGSLRLSCAASGIIFAQNAMGWYRQAPGKEMVLVAAISLDGGSTNYADSVKGRFTISRDNAKNTVYLQMNSLKPEDTAVYYCAADDGWIEPVYGYYEHEYWGQGTQVTVSS,low polyreactivity
10,QVQLVESGRGLVQAGGSLRLSCAASGLTFRVYAMGWYRQAPGKERELVAAITGGGGSTYADSVKGRFTISRDNAKNTVYLQMNSLKPQDTAVYYCNKKGYYYKFDYWGQGTQVTVSS,low polyreactivity
11,QVQLVESGRGLVQAGGSLRLSCAASGRIFFKYAMGRYRPAPGKERELVAAISSSGGRTSYADSVKGRFTISRDNAKNTVYLQMNSLKPEDTAVYYCNVKPSARGSPLYDYWGQGTQVTVSS,high polyreactivity
12,QVQLVESGRGLVQAGGSLRLSCAASGRIFFYYAMGWYREAPGKERELVATISYSGGGTYYADSVKGRFTISRDNAKNTVYLQMNSLKPEDTAVYYCNARWGTPYYIQDFDYWGQGTQVTVSS,low polyreactivity
13,QVQLVESGRGLVQAGGSLRLSCAASGRIFGINAMGGYRQAPGKERELVAPITSGVSTNYADSVKGRFTISRDNAKNTVYLQMNSLKPGDTAVYYCAARPRWYFFSYGRQDYGYWGQGTQVTVSS,low polyreactivity
14,QVQLVESGRGLVQAGGSLRLSCAASGRIFGRNAMGWYRQAPGKESELVASITSGGGTNYADSVKGRFTISRDNAKNTVYLQMNSLKPDDTAVYDCAKQFYRPGQQSRYDYWGQGMQVTVSS,low polyreactivity
15,QVQLVESGRGLVQAGGSLRLSCAASGRIFGVYGRGWYRQAPGKERELVAAISWSGATTYYADSVKGRFTISRDNAKNTVYLQMHSLKPEDTAVYYCAADFGWFYDGVAVWFIRILGDYWGQGTQVTVSS,low polyreactivity
16,QVQLVESGRGLVQAGGSLRLSCAASGRIFYNYAMGGYRQAPGKERELVAAISSSGGSTYFADSVKGRFTISRDNAKNTVYLQMNSLKPEDTAVYYCAVRKQYSGRYYRAYDYWGQGTQVTVSW,high polyreactivity
17,QVQLVESGRGLVQAGGSLRLSCAASGRIFYYYAMGWYRKAPRKERELVAANTETGGNTYYADSVKGRFTISRDNAKNTVYLQMNSLKPEDTAVYYCARKGRRTHHYGLYSSSVYYWGQGTQVTVSS,low polyreactivity
18,QVQLVESGRGLVQAGGSLRLSCAASGRIIRWNAMGWYRQAPGKERELVAGISGSGGSTYYADSVKGRFTISRDNAKNTVYLQMNSLKPEDTAVYYCAADHYRSRYDYWGQGTQVTVSS,low polyreactivity
19,QVQLVESGRGLVQAGGSLRLSCAASGRTFARYAIGWYRPAPGKERELVATIRRVGSTNYADSVNGRFTISRDNAKNTVYLQMNSLKPEDTAVYYCAARSLRYGRGMYYWGQGTQVTVSS,high polyreactivity
20,QVQLVESGRGLVQAGGSLRLSCAASGRTFAYYAMGWYRQAPGKERELVAGITTGGITNYADSVKGRFTISRDNAKNTVYLEMNRLKPEDTAVYYCAKANLFTYWYPGGNFDSAQSDYWGQGTQVTVSS,low polyreactivity
21,QVQLVESGRGLVQAGGSLRLSCAASGRTFPYYAMGWYRQAPGKERELVAAISSSGGSTYYADSVKGRFTISRDNAKNTVYLQMNSLKPEDTAVYYCNRYSRLYLTDDDYWGQGTLVTVSS,high polyreactivity
22,QVQLVESGRGLVQAGGSLRLSCAASGSIFIVYAMGWYRQAPGKERELVAAISWSGGSTYYADSVKGRFTISRDNAKNTVYLQMNSLKPEDSAVYFCAAKYTLPFRDVKYYSWGQGTQVTVSS,high polyreactivity

row,Sequence,polyreactivity (PSR sort gate)
1,QVQLVESGRGLVQAGGSLRLSCAASGSIFIYYAMGWYRQAPGKERELVAAISFSGARTYYADSVKGRFTISRDNAKNTVYLQMNSLKPEDTAVYYCNGARYSRRWPSEYWGQGTQVTVSS,low polyreactivity
2,QVQLVESGRGLVQAGGSLRLSCAASGSIFTSYVMGWYRQAPGKERELVAAISQTGSSTYYADSVKGRFTISRDNAKNTVYLQMNSLKPEDTAVYYFAARRSRGSVRNYDYWGQGTKVTVSS,high polyreactivity
3,QVQLVESGRGLVQAGGSLRLSCAASGSIFYGNTMGWYRQAPGTERELVASITRPGDRTYYADSVKGRFTLSRDNAKNTVDLQMNSLKAEDTAVYYCNAGLVLPPPGACIVYFDQMDYWGQGTQVTVSS,low polyreactivity
4,QVQLVESGRGLVQAGGSLRLSCAASGSMFGKHVMGWYRQAPGKERELVAAISRSGGRTYYADSVKGRFTISRDNANNTVYLQMNTLKPEDTAVYYCAADGQPIGQQTYDYWGQGTQVTVSS,high polyreactivity
5,QVQLVESGRGLVQAGGSLRLSCAASGSNFSVYAMGWYRKAPGKERELVAGITRGGSTYADSVKGRFTISRDNAKNTVYLQMNCLKPEDTAVYYFNAVWSNFRLGYDYWGQGTQVTVSS,high polyreactivity
6,QVQLVESGRGLVQAGGSLRLSCAASGSTFDGYAMGWYRQAPGKERELVAAINWGGGSTRYADSVKGRFTISRDNAKNTVYLQMNSLKPEDTAVYYCAKYTSSRFDAFNYWGQGTQVTVSS,high polyreactivity
7,QVQLVESGRGLVQAGGSLRLSCAASGSTFHGYPMGWYRQEPGKERELVAAITSGDSTNYADSVKGRYTISRDNAKNTVYLQMNSLKPEDTAVYYCAALQADRDRYPEFDLMDYWGQGTQVTVSS,low polyreactivity
8,QVQLVESGRGLVQAGGSLRLSCAASGSTFLYYAMGWSRQAPGKEMELVAVISWSGVSTYYADSVKGRFTISRDNAKTTVYLQMNSLKPEDTAVYYCAAVPVHTGSLYWGFTTGYDYWGQGTQVTVSS,low polyreactivity
9,QVQLVESGRGLVQAGGSLRLSCAASGSTFQYYAMGWYRPATGKERELDAAINSRGTSTFYADSVKGRFTISRDNAKNTVYLQMNSLKPEDTAVDYCNARGPRYGNRYRNDYWGQGTQGTVSS,high polyreactivity
10,QVQLVESGRGLVQAGGSLRLSCAASGSTFRYNAMGWYRQAPGKERELVAAINRGGGTDYADSVKGRFTISRDNAKNTDYLQMNSLKPEDTAVYYCAKQFVSYNRWLAYGYWGQGTQVTVSS,low polyreactivity
11,QVQLVESGRGLVQAGGSLRLSCAASGSTFRYYAMGWYRQAPGKERELVASITRGASTNYADSVKGRFTISRDNAKNTVYLQMNSLKPEDTAVYYCAADNYCHTFGGTDLRDDYWGQGTQVTVSS,low polyreactivity
12,QVQLVESGRGLVQAGGSLRLSCADSGYIFWYYAMGWYRQAPGKERELVATITVSAGTTYFADSVKGRFTISRDNAKNTVYLQMNSLKPEDTAVYYCNKRSALSFVYDFDYWGQGTQVTVSS,low polyreactivity
13,QVQLVESGRGLVQAGGSLRLSCASSGSTFRWNAMGWYRQAPGKERELVAAISQSGSSTYYADSVKGRFTISRDNAKNTVYLQMNSLKPEDTAVYYCAARTGRKYYYWGQGTQVTVSS,low polyreactivity
14,QVQLVESGRGLVQAGGSLRLSCEDSGNIFPYYAMGWYRQAPGKERELVAAISGSGDRTYYADSVNGRFTISRDNAKNTVYLQMNSLKPEDTAVYYCAAYRRYYGWYDYWGQGTQVTVSS,high polyreactivity
15,QVQLVESGRGLVQAGGSLRLSCGASGRTFGYYGMVGYRQATGKERELVASISRRGVSTYYADSVKGRFTISRDNAKNTVYLQMNSLKPEDTAVYYCAKDYWGYKYDYWGKGTQVTVSS,high polyreactivity
16,QVQLVESGRGLVQAGVSLRLSCADSGSTFDYNAMGCYRQATGKERELVPVNRSGGTTYYADSVKGRFTISRDNANNTVYLQMNSLKPEDTAVYYCAAAFQRRAGSYGGSRRYGYWGQVTQVTVSS,high polyreactivity
17,QVQLVESGRGLVQARGSLRLSCAASGFIFYRYAMGWYRQAPGKEREFVAANTSTGTTYYADSVKGRFTISRDNAKNTVYLQMNSLKPEDTAVYYCNAGFRYKYQSSRVDYWGQGTQVTVSS,high polyreactivity
18,QVQLVESGRGLVQEGGSLRLSCAPSGLIFRYYAMGWYRQAPGKEREFVAAISGRGASTYYADSVKGRFTISRDNAKITGYLQMNSLTPEDTAVYYCATYFPSAVVAFHMDYWGQGTQVTVSS,high polyreactivity
19,QVQLVESGRRLVQAGGSLRLTCAASGRTFVTNAMGWYRQAPGKERELVAAISSKGGSTYYADSVKGRFTISRDNAKNTVYLQMNSLKPEDTAVYDCNAEGQPLYVSWHDHRYIYGFDYWGQGTQVTVSS,low polyreactivity
20,QVQLVESGSGLVQAGGSLRLSCAASGSIFVNYGMGRYRQAPGKERELVAAINRNGGRTYYADSVKGRFTISRDNAKNTVYLQMNSLKPEDTAVYYCNALYPGGLSLSRLDYWGQGTQVTVSS,high polyreactivity
21,QVQLVESGVCIVQAGGSLRLSCAASGFTFRENAMGWYRQAPGKERELVAAISKRGGTTYYADSVKGRFTSSRDYAKNTVILQTNSLKPEDTAVYYCATQYLIQNKYYSWGQGTQVTVSS,high polyreactivity
